Reference: patent publication US20030035790A1, “Combination therapy for the prevention or treatment of cancer, inflammatory disorders or infectious diseases in a subject” (priority 1999, published 2003)

Key:
[1] = test system: Fr.II cells derived from the bone marrow of MCA26 tumor-bearing mice; experiment: In vitro differentiation of bone marrow Fr.II myeloid progenitor cells, flow cytometry; format: cell-based, mouse; details: 10 days GM-CSF, then additional 24 hours
Protocol: FIG. 19. Immunostaining of DCs generated from different culture conditions. BM Fr.II cells derived from naive and MCA-26 tumor bearing mice were cultured with mGM-CSF for 10 days. Non-adherent cells were harvested and cultured in the presence of mGM-CSF or mGM-CSF and anti-CD40 mAb ([…], FGK45 clone) for additional 24 hours. Non-adherent cells were stained and analyzed for the expression of various surface molecules by flow cytometry. Mean±SD is obtained from three independent experiments.
The ability of Fr.II cells derived from the bone marrow of MCA26 tumor-bearing mice to differentiate into dendritic cells when cultured under various conditions was assessed. Fr.II cells from derived the bone marrow of tumor-free or MCA26 tumor-bearing mice were cultured for 10 days with GM-CSF. Then non-adherent cells were harvested and cultured for additional 24 hours in the presence of GM-CSF or GM-CSF and anti-CD40 monoclonal antibody. The non-adherent cells were stained and analyzed for the expression of various cell surface molecules by flow cytometry. The expression of CD40, CD80, and MHC class II was relatively low in the tumor-bearing mice. However, after culturing the Fr. II cells with GM-CSF or GM-CSF and anti-CD40 monoclonal antibody, the expression of CD40, CD 80, CD11c and MHC class II by the Fr. […]

TILs = experiment: In vitro GM-CSF stimulation of TILs from large tumor-bearing mice, surface marker staining; format: cell-based, mouse; details: GM-CSF 100 ng/ml for 5 days
Protocol: The ability of in vitro stimulation with GM-CSF to promote the differentiation of tumor infiltrating lymphocytes (TILs) into dendritic cells or macrophages by was assessed. The TILs were isolated from large tumor-bearing mice, separated on a lymphocyte separation gradient, cultured with or without GM-CSF (100 ng/ml) for 5 days, and then stained with various cell surface markers. A reproducibly high percentage of Gr-1^+ cells was resent in the TIL population (65.5%), while the percentage of dendritic cells in the TIL population was very low (0.31%); some macrophages (14.9%) were also present in the TIL population.

B1: GM-CSF: murine granulocyte macrophage colony-stimulating factor added to cultures (protein, UniProt P01587 18-141, looked up)
Granulocyte-macrophage …: APTRSPITVTRPWKHVEAIKEALNLLDDMPVTLNEEVEVVSNEFSFKKLTCVQTRLKIFEQGLRGNFTKLKGALNMTASYYQTYCPPTPETDCETQVTTYADFIDSLKTFLTDIPFECKKPGQK
**Q.** B1 was tested. Which “expression of CD40, CD 80, CD11c and MHC class II by the Fr. II cells” value [1] did it give?
**A.** The value was “significantly increased”.

**Q.** What about the “Gr-1^+ cells in the TIL population” value (TILs) of the same molecule?
**A.** The value was 42.7%.

**Q.** What about the “dendritic cells in the TIL population” value (TILs) of the same molecule?
**A.** Its value is 13.9%.

**Q.** What about the “macrophages in the TIL population” value (TILs) of the same molecule?
**A.** Its value is 24.3%.
